Reference: US20150152192A1 (SAMSUNG ELECTRONICS, published 2015)

How the values were obtained:
Experiment in all cases: ELISA, scFv coated, 250 ng FLAG-tagged Ang2 mutant, anti-FLAG-HRP
[1] = molecular target: T1, Ang2 with P452 mutated with alanine, tagged with FLAG (human, UniProt O15123 19-496, limits assumed)
T1 sequence: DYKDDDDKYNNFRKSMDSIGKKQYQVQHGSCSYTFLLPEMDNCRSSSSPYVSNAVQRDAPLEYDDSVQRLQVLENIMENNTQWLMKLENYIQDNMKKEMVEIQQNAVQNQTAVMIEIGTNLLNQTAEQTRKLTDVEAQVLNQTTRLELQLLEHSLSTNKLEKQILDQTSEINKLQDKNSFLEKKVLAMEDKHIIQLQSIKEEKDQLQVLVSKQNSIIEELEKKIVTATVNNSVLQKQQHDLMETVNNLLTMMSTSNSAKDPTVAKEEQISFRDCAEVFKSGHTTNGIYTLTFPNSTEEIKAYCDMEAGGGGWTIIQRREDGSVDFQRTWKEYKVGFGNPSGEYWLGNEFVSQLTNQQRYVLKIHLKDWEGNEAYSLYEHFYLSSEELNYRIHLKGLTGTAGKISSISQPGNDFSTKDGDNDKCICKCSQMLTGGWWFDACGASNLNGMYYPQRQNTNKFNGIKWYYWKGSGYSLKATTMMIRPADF
Description: (§1) A 96-well MaxiSorp™ flat-bottom plate (Nunc) was coated with 50 μl of the anti-Ang2 scFv selected above. After that, the plate was washed five times with 0.05% (v/v) Tween-20-containing PBS and then blocked with 1% (v/v) BSA-containing PBS at a room temperature for 2 hours. […] Thereafter, the plate was washed five times with 0.05% Tween-20-containing PBS and then, an HRP-conjugated anti-FLAG antibody (SIGMA) diluted in 1% (v/v) BSA-containing PBS at 1:5,000 ratio (v/v) was added in the amount of 50 μl to each well to react at a room temperature for 1 hour, followed by washing five times with 0.1% (v/v) Tween-20-containing PBS.
(§2) Finally, 100 μl of TMB substrate (cell signal) was added to each well of the plate to induce color development and then, the reaction was ceased by the addition of 50 μl of 5N H₂SO₄ solution and OD450 values were measured on a plate reader (Molecular Devices).

[2] = molecular target: T2, Ang2 with Y460 mutated with alanine, tagged with FLAG (human, UniProt O15123 19-496, limits assumed)
T2 sequence: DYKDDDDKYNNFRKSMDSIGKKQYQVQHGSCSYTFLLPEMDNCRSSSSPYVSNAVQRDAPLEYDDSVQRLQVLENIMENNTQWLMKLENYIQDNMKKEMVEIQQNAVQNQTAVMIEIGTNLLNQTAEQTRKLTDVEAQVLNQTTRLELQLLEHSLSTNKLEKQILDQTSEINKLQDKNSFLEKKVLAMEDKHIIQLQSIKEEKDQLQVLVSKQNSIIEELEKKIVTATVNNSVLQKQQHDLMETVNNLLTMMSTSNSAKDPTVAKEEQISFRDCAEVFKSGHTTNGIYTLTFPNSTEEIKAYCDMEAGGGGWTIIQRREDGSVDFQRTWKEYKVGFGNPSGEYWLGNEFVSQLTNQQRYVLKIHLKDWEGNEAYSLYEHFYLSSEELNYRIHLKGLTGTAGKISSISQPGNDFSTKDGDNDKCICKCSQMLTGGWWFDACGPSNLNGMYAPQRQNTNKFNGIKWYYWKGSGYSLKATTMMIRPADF
Description: as §1, §2

[3] = molecular target: T3, Ang2 with K468 mutated with alanine, tagged with FLAG (human, UniProt O15123 19-496, limits assumed)
T3 sequence: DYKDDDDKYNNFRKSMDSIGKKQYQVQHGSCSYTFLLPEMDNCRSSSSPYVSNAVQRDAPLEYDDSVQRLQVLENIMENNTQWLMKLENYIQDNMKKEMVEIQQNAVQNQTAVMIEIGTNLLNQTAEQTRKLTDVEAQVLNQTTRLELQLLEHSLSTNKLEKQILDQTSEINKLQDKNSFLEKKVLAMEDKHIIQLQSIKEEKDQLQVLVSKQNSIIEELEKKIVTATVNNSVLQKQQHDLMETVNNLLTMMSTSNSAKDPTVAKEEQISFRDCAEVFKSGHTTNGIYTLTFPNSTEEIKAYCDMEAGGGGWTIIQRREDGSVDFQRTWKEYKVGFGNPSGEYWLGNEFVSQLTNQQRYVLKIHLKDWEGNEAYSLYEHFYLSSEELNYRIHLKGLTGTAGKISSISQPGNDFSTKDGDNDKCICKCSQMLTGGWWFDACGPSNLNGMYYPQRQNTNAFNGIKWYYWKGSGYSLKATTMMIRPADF
Description: as §1, §2

[4] = molecular target: T4, Ang2 with F469 mutated with alanine, tagged with FLAG (human, UniProt O15123 19-496, limits assumed)
T4 sequence: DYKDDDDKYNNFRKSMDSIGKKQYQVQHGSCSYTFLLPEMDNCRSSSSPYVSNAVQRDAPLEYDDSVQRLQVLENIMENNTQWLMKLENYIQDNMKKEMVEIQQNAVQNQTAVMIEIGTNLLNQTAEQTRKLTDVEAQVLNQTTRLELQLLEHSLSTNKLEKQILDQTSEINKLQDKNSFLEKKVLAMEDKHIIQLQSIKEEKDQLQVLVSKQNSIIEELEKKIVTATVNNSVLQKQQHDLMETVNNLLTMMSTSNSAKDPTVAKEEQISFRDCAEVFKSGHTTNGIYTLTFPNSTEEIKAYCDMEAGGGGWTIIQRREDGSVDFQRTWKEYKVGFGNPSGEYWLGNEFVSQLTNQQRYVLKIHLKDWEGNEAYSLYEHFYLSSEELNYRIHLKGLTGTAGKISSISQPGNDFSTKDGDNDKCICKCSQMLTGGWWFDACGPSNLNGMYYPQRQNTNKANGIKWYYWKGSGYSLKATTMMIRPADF
Description: as §1, §2

B1: SAIT-ANG-2-AB-2-E6 (scFv form) (scFv, V domains shown)
VH: EVQLLESGGGLVQTGGSLRLSCAASGFTFSDYAMSWVRQAPGKGLEWVSAIYPDSGNKYYADSVKGRFTISRDNSKNTLYLQMNSLRAEDTAVYYCARHSSDPKVKSGYYDDGMDVWGQGTLVAVSS
VL: QSVLTQPPSASGTPGQRVTISCSGSSSNIGNNAVNWYQQLPGTAPKLLIYADSNRPSGVPDRFSGSKSGTSASLAISGLRSEDEADYYCGSWDYSLSGYVFGGGTKLTVLG
notes: scFv from a phage display library, partly purified from E. coli periplasm on Ni-NTA and detected with anti-HA
Relative binding (%) with Mutant Ang2 compared to the binding with native Ang2 [1]: 24%
Relative binding (%) with Mutant Ang2 compared to the binding with native Ang2 [2]: 40%
Relative binding (%) with Mutant Ang2 compared to the binding with native Ang2 [3]: 94%
Relative binding (%) with Mutant Ang2 compared to the binding with native Ang2 [4]: 112%

B2: SAIT-ANG-2-AB-3-D3 (scFv form) (scFv, V domains shown)
VH: EVQLLESGGGLVQPGGSLRLSCAASGFTFSDYDMSWVRQAPGKGLEWVSGISSDDGNTYYADSVKGRFTISRDNSKNTLYLQMNSLRAEDTAVYYCARPTIDKYTLRGYYSYGMDVWGQGTLVTVSS
VL: QSVLTQPPSASGTPGQRVTISCTGSSSNIGSNYVSWYQQLPGTAPKLLIYSDNKRPSGVPDRFSGSKSGTSASLAISGLRSEDEADYYCGTWDDSLNGYVFGGGTKLTVLG
notes: scFv from a phage display library
Relative binding (%) with Mutant Ang2 compared to the binding with native Ang2 [1]: 97.3%
Relative binding (%) with Mutant Ang2 compared to the binding with native Ang2 [2]: 95.1%
Relative binding (%) with Mutant Ang2 compared to the binding with native Ang2 [3]: 95.9%
Relative binding (%) with Mutant Ang2 compared to the binding with native Ang2 [4]: 96.4%

B3: SAIT-ANG-2-AB-8-A5 (scFv form) (scFv, V domains shown)
VH: EVQLLESGGGLVQPGGSLRLSCAASGFTFSDYYMSWVRQAPGKGLEWVSGIYPSGGSTYYADSVKGRFTISRDNSKNTLYLQMNSLRAEDTAVYYCARDPSTLTYAGFDYWGQGTLVTVSS
VL: QSVLTQPPSASGTPGQRVTISCSGSSSNIGNNYVTWYQQLPGTAPKLLIYADSHRPSGVPDRFSGSKSGTSASLAISGLRSEDEADYYCATWDYSLSGYVFGGGTKLTVLG
notes: as for B2
Relative binding (%) with Mutant Ang2 compared to the binding with native Ang2 [1]: 86.5%
Relative binding (%) with Mutant Ang2 compared to the binding with native Ang2 [2]: 91.6%
Relative binding (%) with Mutant Ang2 compared to the binding with native Ang2 [3]: 101%
Relative binding (%) with Mutant Ang2 compared to the binding with native Ang2 [4]: 102%

B4: SAIT-ANG-2-AB-4-F5 (scFv form) (scFv, V domains shown)
VH: EVQLLESGGGLVQPGGSLRLSCAASGFTFSDYDMSWVRQAPGKGLEWVSSISHGDSNKYYADSVKGRFTISRDNSKNTLYLQMNSLRAEDTAVYYCAKSSGIQESPPTYYYYGMDVWGQGTLVTVSS
VL: QSVLTQPPSASGTPGQRVTISCSGSSSNIGSNAVNWYQQLPGTAPKLLIYADSNRPSGVPDRFSGSKSGTSASLAISGLRSEDEADYYCGSWDYSLSGYVFGGGTKLTVLG
notes: as for B2
Relative binding (%) with Mutant Ang2 compared to the binding with native Ang2 [1]: 15%
Relative binding (%) with Mutant Ang2 compared to the binding with native Ang2 [2]: 21.8%
Relative binding (%) with Mutant Ang2 compared to the binding with native Ang2 [3]: 87.4%
Relative binding (%) with Mutant Ang2 compared to the binding with native Ang2 [4]: 259%

B5: SAIT-ANG-2-AB-7-C9 (scFv form) (scFv, V domains shown)
VH: EVQLLESGGGLVQPGGSLRLSCAASGFTFSNYAMSWVRQAPGKGLEWVSAISSGGGNIYYADSVKGRFTISRDNSKNTLYLQMNSLRAEDTAVYYCAKSGIQPSPPSMSSAYAMDVWGQGTLVTVSS
VL: QSVLTQPPSASGTPGQRVTISCSGSSSNIGNNDVYWYQQLPGTAPKLLIYANSHRPSGVPDRFSGSKSGTSASLAISGLRSEDEADYYCGTWDYSLSGYVFGGGTKLTVLG
notes: as for B2
Relative binding (%) with Mutant Ang2 compared to the binding with native Ang2 [1]: 85%
Relative binding (%) with Mutant Ang2 compared to the binding with native Ang2 [2]: 78.1%
Relative binding (%) with Mutant Ang2 compared to the binding with native Ang2 [3]: 97.3%
Relative binding (%) with Mutant Ang2 compared to the binding with native Ang2 [4]: 89.4%

B6: SAIT-ANG-2-AB-4-F11 (scFv form) (scFv, V domains shown)
VH: EVQLLESGGGLVQTGGSLRLSCAASGFTFSDYAMSWVRQAPGKGLEWVSSIYPDDGNTYYADSVKGRFTISRDNSKNTLYLQMNSLRAEDTAVYYCAKHPVRLNLHPMYYYYGMDVWGQGTLVTVSS
VL: QSVLTQPPSASGTPGQRVTISCTGSSSNIGNNAVSWYQQLPGTAPKLLIYSDSQRPSGVPDRFSGSKSGTSASLAISGLRSEDEADYYCATWDYSLSAYVFGGGTKLTVLG
notes: as for B2
Relative binding (%) with Mutant Ang2 compared to the binding with native Ang2 [1]: 91.6%
Relative binding (%) with Mutant Ang2 compared to the binding with native Ang2 [2]: 96.1%
Relative binding (%) with Mutant Ang2 compared to the binding with native Ang2 [3]: 102%
Relative binding (%) with Mutant Ang2 compared to the binding with native Ang2 [4]: 105%

B7: SAIT-ANG-2-AB-4-C11 (scFv form) (scFv, V domains shown)
VH: EVQLLESGGGLVQPGGSLRLSCAASGFTFSDYAMSWVRQAPGKGLEWVSSIYPDDGNTYYADSVKGRFTISRDNSKNTLYLQMNSLRAEDTAVYYCARHTSHHTSIDGYYYYGMDGWGQGTLVTVSS
VL: QSVLTQPPSASGTPGQRVTISCTGSSSNIGNNDVSWYQQLPGTAPKLLIYSDSKRPSGVPDRFSGSKSGTSASLAISGLRSEDEADYYCGSWDYSLSGYVFGGGTKLTVLG
notes: as for B2
Relative binding (%) with Mutant Ang2 compared to the binding with native Ang2 [1]: 70%
Relative binding (%) with Mutant Ang2 compared to the binding with native Ang2 [2]: 74.3%
Relative binding (%) with Mutant Ang2 compared to the binding with native Ang2 [3]: 94.8%
Relative binding (%) with Mutant Ang2 compared to the binding with native Ang2 [4]: 102%
